# Measured values reported in article PMC3741392, “The Tip of the Tail Needle Affects the Rate of DNA Delivery by Bacteriophage P22” (PLoS ONE, 2013).
# B1: bacteriophage HS1 tail needle knob (domain or fragment)
# chain: RISALEYATTRKKSEVVYSGVSVTIPTAPTNLVSLLKTLTPSSGTLAPFFDTVNNKMVVFNENKTLFFKLSIVGTWPSGTANRSMQLTFSGSVPDTLVSSRNSATTTDNILLATFFSVDKDGFLATNGSTLTIQSNGAAFTATTIKIIAEQ
# Biological target: the molecule itself
# Assay: crystal structure; hanging drop vapor diffusion, 26% PEG 3350, 50 mM Tris-HCl pH 8.0; space group P212121; one trimer in the asymmetric unit; 1.1 Å
protein,measurement,value
B1,stoichiometry N,3
